Entries after “also recorded” stand apart in the source; their conditions may differ.
Tests used:
[1] = biological target: T1, human Axl (rhAxl-Fc chimera) (Homo sapiens, UniProt P30530); assay: Biacore binding analysis on immobilized human Axl; settings: 10 μg/mL, 25° C.
T1 construct: Soluble recombinant antigens corresponding to the extracellular domains of members of the human TAM receptor family; purchased R&D Systems 154-AL
Protocol: All binding experiments were performed using Biacore 3000 instrument (GE Healthcare) at 25° C. Soluble recombinant antigens corresponding to the extracellular domains of members of the human TAM receptor family, Axl (rhAxl-Fc chimera; R&D Systems, Cat. no. 154-AL), Mer (rhMer-Fc chimera; R&D Systems, Cat. no. 891-MR) and Tyro3 (rhTyro3/Dtk-Fc chimera; R&D Systems, Cat. no. 859-DK) were immobilized on the surface of CM5 sensor chip using amine coupling at the surface density of 393.0, 303.6 and 364.0 resonance units (RU), respectively. The Biacore run was performed in an automatic mode using Binding analysis wizard. Samples containing either MAb 10C9 or MAb 10G5 at concentration 10 μg/mL in HBS-EP buffer (GE Healthcare) were injected over the surfaces with immobilized antigens at flow rate of 30 μL/min for 3 min (association) followed by 5 min dissociation.
The binding experiments were performed using Biacore 3000 instrument (GE Healthcare) at 25° C. The soluble recombinant antigens corresponding to human Axl (rhAxl-Fc chimera; R&D Systems, Cat. no. 154-AL), mouse Axl (rmAxl-Fc chimera; R&D Systems, R&D Systems; Cat. no. 854-AX) and human Tyro3 (rhTyro3/Dtk-Fc chimera; R&D Systems, Cat. no. 859-DK) were immobilized on the surface of CM5 sensor chip using amine coupling at the surface density of 1,308.0, 2,115.9 and 1,429.0 RU, respectively. The Biacore runs were performed in an automatic mode using Binding analysis wizard.
The sample containing either MAb 10C9, MAb 10G5 or recombinant mouse (rm) Axl-ligand Gas6 (R&D Systems, Cat. no. 986-GS/CF) at concentration 10 μg/mL in HBS-EP buffer (GE Healthcare) was injected over the surfaces with immobilized antigens at flow rate of 30 μL/min for 3 min (association) followed by 5 min dissociation.
The sequence of Axl receptor from cynomolgus monkey (Macaca fascicularis; SEQ ID NO.43) was retrieved from WO2009062690A1. Based on the sequence, recombinant extracellular domain of cyno-Axl was generated by transient expression in CHO cells as a fusion protein with human Fc. The recombinant cyno-Axl-Fc was purified to homogeneity using Protein A-Sepharose (GE Healthcare). The binding experiments were performed using Biacore 3000 instrument (GE Healthcare) at 25° C. The soluble recombinant antigens corresponding to human Axl (rhAxl-Fc chimera; R&D Systems, Cat. no. 154-AL) and cyno-Axl were immobilized on the surface of CM5 sensor chip using amine coupling at the surface density of 775 and 880 RU, respectively. The Biacore runs were performed in an automatic mode using Binding analysis wizard.
The sample containing either MAb 10C9, MAb 10G5 or human Axl-specific MAb 5F11 (control) at concentration 10 μg/mL in HBS-EP buffer (GE Healthcare) was injected over the surfaces with immobilized antigens at flow rate of 30 μL/min for 3 min (association) followed by 5 min dissociation.
In addition, the Axl-binding properties of the chimeric antibodies c10C9 and c10G5 were tested using Biacore 3000 instrument (GE Healthcare) and a sensor chip CM5 coated with human Axl (rhAxl-Fc chimera; R&D Systems, Cat. no. 154-AL) at the surface density of 1,308.0 RU. The Biacore runs were performed in an automatic mode using Binding analysis wizard. The samples comprising either the chimeric antibodies c10C9 and c10G5 or their murine counterparts at concentration 10 μg/mL in HBS-EP buffer (GE Healthcare) were injected over the surfaces with immobilized antigens at flow rate of 30 μL/min for 3 min (association) followed by 5 min dissociation.

[2] = biological target: T2, rhAxl-Fc chimera (recombinant human Axl) (Homo sapiens, UniProt P30530); assay: Biacore surface plasmon resonance kinetic affinity determination on immobilized rhAxl-Fc; assay type: binding; settings: for association rate (kon): human Axl, Examples 5 and 13; for Off-rate (koff; s^−1) / On-rate (kon; M^−1s^−1): rhAxl immobilized on sensor chip, 25° C., 1:1 Langmuir binding model
T2 construct: Soluble recombinant antigens corresponding to the extracellular domains of members of the human TAM receptor family; purchased R&D Systems 154-AL
Protocol: Kinetic analysis of MAbs 10C9 and 10G5 interacting with rhAxl immobilized on the surface of the Biacore sensor chip. Overlay plots of sensograms for different antibody concentrations (1.3-666.7 nM for 10C9 and 0.3-166.7 nM for 10G5) are shown. The precise kinetic analysis was performed using BIA evaluation software and curve fitting according to 1:1 Langmuir binding model.
Kinetic analysis of chimeric antibodies c10C9 and c10G5 interacting with rhAxl immobilized on the surface of the Biacore sensor chip. Overlay plots of sensograms for different antibody concentrations (1.3-666.7 nM for c10C9 and 0.3-166.7 nM for c10G5) are shown. The precise kinetic analysis was performed using BIA evaluation software and curve fitting according to 1:1 Langmuir binding model.
Affinity determination of anti-Axl antibodies 10C9 and 10G5 was performed at 25° C. by surface plasmon resonance measurements using Biacore 3000 instrument (GE Healthcare). As a solid antigen-coated surface, a sensor chip CM5 with immobilized rhAxl-Fc chimera (R&D Systems, Cat. no. 154-AL) at density 190 RU was used.
For the kinetics measurements, different concentrations of anti-Axl antibodies (from 0.3 to 666.7 nM) in HBS-EP buffer (Biacore, Cat. no. BR-1001-88) were injected at flow rate of 30 μL/min with 3 min injection time followed by 5 min dissociation (buffer alone). After each cycle, the surface was regenerated by 30 sec injection of a regeneration solution (10 mM HCl, 1 M NaCl) at flow rate 50 μL/min.
The kinetic association (on-rate, kon) and dissociation (off-rate, koff) rates were calculated using BIAevaluation software and 1:1 Langmuir binding model. The equilibrium dissociation constant (KD) was calculated as the koff/kon ratio. The half-life (t1/2) of the formed antibody-antigen complexes was calculated as the ln 2/koff ratio.
Affinity determination of the chimeric anti-Axl antibodies c10C9 and c10G5 was performed at 25° C. by surface plasmon resonance measurements using Biacore 3000 instrument (GE Healthcare). As a solid antigen-coated surface, a sensor chip CM5 with immobilized rhAxl-Fc chimera (R&D Systems, Cat. no. 154-AL) at density 190 RU was used.
For the kinetics measurements, different concentrations of anti-Axl antibodies (from 0.3 to 333.3 nM) in HBS-EP buffer (Biacore, Cat. no. BR-1001-88) were injected at flow rate of 30 μL/min with 3 min injection time followed by 5 min dissociation (buffer alone). After each cycle, the surface was regenerated by 30 sec injection of a regeneration solution (10 mM HCl, 1 M NaCl) at flow rate 50 μL/min.

Row | Molecule | binding to human Axl [1] | binding to human Axl ([1]; listed as 1009) | association rate (kon) [2] | Off-rate (koff; s^−1) ([2]; mouse MAbs) | On-rate (kon; M^−1s^−1) ([2]; mouse MAbs) | Off-rate (koff; s^−1) ([2]; chimeric antibodies) | On-rate (kon; M^−1s^−1) ([2]; chimeric antibodies)
1 | 10C9: mouse anti-Axl monoclonal antibody from hybridoma UT-10C9-B9, IgG2b; VH SEQ ID NO: 3, VL SEQ ID NO: 4 (antibody, listed as Mus musculus, V domains shown) VH: QVQLQQPGPELVKPGASVKISCKTSDYNFTRYYIHWVKQRPGQGLEWIGWIYPGTGDSKYNEKFKGRATLTADTSSSTAYMQLSSQTSEDSAVYFCARNGNYWYFDVWGAGTAVTVSS VL: DIVMTQAAPSGPVTPGESVSISCRSSKSLLHSNGNTYLYWFLQRPGQSPQLLIYRMSNLASGVPDRFSGSGSGTAFTLRISRVEAEDVGIYYCMQHREYPFTFGGGTKLEIK | specific binding; also recorded: strong and specific interaction | bind strongly | 1.61e+06 M⁻¹ s⁻¹ | 0.000289 s⁻¹ | 1.61e+06 M⁻¹ s⁻¹ |  | 
2 | 10G5: mouse anti-Axl monoclonal antibody from hybridoma WR-10G5-E5, IgG1; VH SEQ ID NO: 21, VL SEQ ID NO: 22 (antibody, listed as Mus musculus, V domains shown) VH: QVQLQQSGAELVRPGASVKLSCKASGYSFTDFYINWVRQRPGQGLEWIARIFPGGDNTYYNEKFKGKATLTAEESSSTAYIQLSSLTSEDSAVYFCARRGLYYAMDYWGQGISVTVSS VL: DVLMTQTPLSLPVSLGDQASISCRSSQSLVHSNGIPYLHWYLQKPGQSPKLLIYRVSNRFSGVPDRFSGSGSGTDFTLKISRVEAEDLGVYFCSQGTHVPPTFGGGTKLEIK | bind strongly; also recorded: specific binding; also recorded: strong and specific interaction |  | 830000 M⁻¹ s⁻¹ | 0.000439 s⁻¹ | 829000 M⁻¹ s⁻¹ |  | 
3 | c10G5: chimeric (mouse variable/human constant) IgG1 variant of antibody 10G5 (antibody, left off: a dimerising Fc or GST, chimeric (mouse variable/human constant) IgG1 variant of antibody 10G5) heavy: QVQLQQSGAELVRPGASVKLSCKASGYSFTDFYINWVRQRPGQGLEWIARIFPGGDNTYYNEKFKGKATLTAEESSSTAYIQLSSLTSEDSAVYFCARRGLYYAMDYWGQGISVTVSS light: DVLMTQTPLSLPVSLGDQASISCRSSQSLVHSNGIPYLHWYLQKPGQSPKLLIYRVSNRFSGVPDRFSGSGSGTDFTLKISRVEAEDLGVYFCSQGTHVPPTFGGGTKLEIK | bind immobilized Axl with profiles very similar to the binding profiles of the corresponding mouse antibodies |  |  |  |  | 0.000169 s⁻¹ | 1.64e+06 M⁻¹ s⁻¹
